Source: patent US20250368745A1 (published 2025)
Residue numbers refer to the chain shown, from its start.

Key:
cynomolgus IL-18BP [1] = target: T1, cynomolgus IL-18BP (cynomolgus monkey); experiment: BLI single-concentration screen, apparent KD
T1 construct: Generated in-house; also called cyIL-18BP; cyno IL-18BP
T1 chain: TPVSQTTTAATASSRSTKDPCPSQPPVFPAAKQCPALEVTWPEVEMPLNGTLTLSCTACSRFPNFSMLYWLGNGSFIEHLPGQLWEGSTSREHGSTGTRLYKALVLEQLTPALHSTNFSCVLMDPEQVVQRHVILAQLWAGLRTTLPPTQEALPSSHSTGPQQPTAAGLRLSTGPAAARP

human IL-18BP = target: T2, human IL-18BP (human, UniProt O95998 31-194); experiment: BLI, apparent KD
T2 construct: UniProt printed as 095998; also called hIL-18BP
T2 sequence: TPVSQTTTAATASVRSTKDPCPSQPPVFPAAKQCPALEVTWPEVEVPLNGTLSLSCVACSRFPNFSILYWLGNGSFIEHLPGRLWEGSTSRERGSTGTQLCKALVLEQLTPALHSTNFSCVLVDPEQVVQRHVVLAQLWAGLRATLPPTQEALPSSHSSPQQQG

cynomolgus IL-18BP [2] = target: T3, cynomolgus IL-18BP (cynomolgus monkey); experiment: BLI, apparent KD
T3 construct: also called cyno IL-18BP; cyIL-18BP
T3 chain: T1 chain

[3] = target: T4, human IL-18BP (interleukin-18 binding protein, isoform A) (human, UniProt O95998 31-194); experiment: BLI single-concentration screen, apparent KD
T4 construct: cell assays used Sino Biological 10357-H08H; PBMC assay 1 relies on endogenous IL-18BP; UniProt number is printed as 095998; also called hIL-18BP
T4 sequence: T2 sequence

B1: SA301a heavy chain variant N33bD, C34S (antibody, human IgG1, V domains shown)
VH: QVQLQESGPGLVKPSQTLSLTCTVSGYSITSDYDSHWIRQPPGKGLEWIGYIHYSGSTNYNPSLKSRVTISRDTSKNQFSLKLSSVTAADTAVYYCARNYGSIYVNYFDYWGQGTLVTVSS
VL: EIVLTQSPATLSLSPGERATLSCSASSSVSYMYWYQQKPGQAPRPLIYRTSNLASGIPARFSGSGSGTDFTLTISSLEPEDFAVYYCQQYHSYPTFGGGTKVEIK
notes: library variant, human IgG1/kappa, from supernatant
- Kd (cynomolgus IL-18BP [1]): 0.1 nM

B2: SA301a HC-Y50I (antibody, name in Kabat numbering, V domains shown)
VH: B1 VH with D34N, Y51I
VL: B1 VL
notes: IgG1 kappa
- Kd (human IL-18BP): 3.37 nM
- Kd (cynomolgus IL-18BP [2]): 6.42 nM

B3: SA301a heavy chain variant N33bY, C34S (antibody, human IgG1, V domains shown)
VH: B1 VH with D34Y
VL: B1 VL
notes: as for B1
- Kd [3]: 1.2 nM
- Kd (cynomolgus IL-18BP [1]): 0.9 nM

B4: SA301a HC-Y50E (antibody, name in Kabat numbering, V domains shown)
VH: B1 VH with D34N, Y51E
VL: B1 VL
notes: IgG1 kappa
- Kd (human IL-18BP): 3.44 nM
- Kd (cynomolgus IL-18BP [2]): 8.97 nM

B5: SA301a heavy chain variant N33bL, C34S (antibody, human IgG1, V domains shown)
VH: B1 VH with D34L
VL: B1 VL
notes: as for B1
- Kd [3]: 0.8 nM
- Kd (cynomolgus IL-18BP [1]): 0.6 nM

B6: SA301a HC-Y50P (antibody, name in Kabat numbering, V domains shown)
VH: B1 VH with D34N, Y51P
VL: B1 VL
notes: IgG1 kappa
- Kd (human IL-18BP): 1.08 nM
- Kd (cynomolgus IL-18BP [2]): 4.49 nM

B7: SA301a heavy chain variant N33bM, C34S (antibody, human IgG1, V domains shown)
VH: B1 VH with D34M
VL: B1 VL
notes: as for B1
- Kd [3]: 1.9 nM
- Kd (cynomolgus IL-18BP [1]): 1.4 nM

B8: SA301a HC-Y50R (antibody, name in Kabat numbering, V domains shown)
VH: B1 VH with D34N, Y51R
VL: B1 VL
notes: IgG1 kappa
- Kd (human IL-18BP): 1.19 nM
- Kd (cynomolgus IL-18BP [2]): 4.98 nM

B9: SA301a HC-Y50M (antibody, name in Kabat numbering, V domains shown)
VH: B1 VH with D34N, Y51M
VL: B1 VL
notes: IgG1 kappa
- Kd (human IL-18BP): 2.06 nM
- Kd (cynomolgus IL-18BP [2]): 1.8 nM

B10: SA301a heavy chain variant N33bS, C34S (antibody, human IgG1, V domains shown)
VH: B1 VH with D34S
VL: B1 VL
notes: as for B1
- Kd [3]: 1.4 nM
- Kd (cynomolgus IL-18BP [1]): 1 nM

B11: SA301a heavy chain variant N33bT, C34S (antibody, human IgG1, V domains shown)
VH: B1 VH with D34T
VL: B1 VL
notes: as for B1
- Kd [3]: 0.3 nM
- Kd (cynomolgus IL-18BP [1]): 0.4 nM

B12: SA301a HC-Y50S (antibody, name in Kabat numbering, V domains shown)
VH: B1 VH with D34N, Y51S
VL: B1 VL
notes: IgG1 kappa
- Kd (human IL-18BP): 2.17 nM
- Kd (cynomolgus IL-18BP [2]): 2.48 nM

B13: SA302a heavy chain variant N33bK, C34A (antibody, human IgG1, V domains shown)
VH: B1 VH with D34K, S35A
VL: B1 VL
notes: as for B1
- Kd [3]: 0.3 nM
- Kd (cynomolgus IL-18BP [1]): 0.4 nM

B14: SA301a HC-Y50F (antibody, name in Kabat numbering, V domains shown)
VH: B1 VH with D34N, Y51F
VL: B1 VL
notes: IgG1 kappa
- Kd (human IL-18BP): 2.18 nM
- Kd (cynomolgus IL-18BP [2]): 1.81 nM

B15: SA301a HC-Y50H (antibody, name in Kabat numbering, V domains shown)
VH: B1 VH with D34N, Y51H
VL: B1 VL
notes: IgG1 kappa
- Kd (human IL-18BP): 1.87 nM
- Kd (cynomolgus IL-18BP [2]): 3.87 nM

B16: SA302a heavy chain variant N33bH, C34A (antibody, human IgG1, V domains shown)
VH: B1 VH with D34H, S35A
VL: B1 VL
notes: as for B1
- Kd [3]: 0.8 nM
- Kd (cynomolgus IL-18BP [1]): 0.6 nM

B17: SA302a heavy chain variant N33bM, C34A (antibody, human IgG1, V domains shown)
VH: B1 VH with D34M, S35A
VL: B1 VL
notes: as for B1
- Kd [3]: 0.9 nM
- Kd (cynomolgus IL-18BP [1]): 1 nM

B18: SA302a heavy chain variant N33bI, C34A (antibody, human IgG1, V domains shown)
VH: B1 VH with D34I, S35A
VL: B1 VL
notes: as for B1
- Kd [3]: 0.6 nM
- Kd (cynomolgus IL-18BP [1]): 0.4 nM

B19: SA301a HC-Y50V (antibody, name in Kabat numbering, V domains shown)
VH: B1 VH with D34N, Y51V
VL: B1 VL
notes: IgG1 kappa
- Kd (human IL-18BP): 1.96 nM
- Kd (cynomolgus IL-18BP [2]): 10.2 nM

B20: SA301a HC-Y50D (antibody, name in Kabat numbering, V domains shown)
VH: B1 VH with D34N, Y51D
VL: B1 VL
notes: IgG1 kappa
- Kd (human IL-18BP): 5.28 nM
- Kd (cynomolgus IL-18BP [2]): 16.5 nM

B21: SA302a heavy chain variant N33bF, C34A (antibody, human IgG1, V domains shown)
VH: B1 VH with D34F, S35A
VL: B1 VL
notes: as for B1
- Kd [3]: 1.5 nM
- Kd (cynomolgus IL-18BP [1]): 1.4 nM

B22: SA301a heavy chain variant N33bV, C34S (antibody, human IgG1, V domains shown)
VH: B1 VH with D34V
VL: B1 VL
notes: as for B1
- Kd [3]: 0.4 nM
- Kd (cynomolgus IL-18BP [1]): 0.3 nM

B23: SA301a HC-Y50L (antibody, name in Kabat numbering, V domains shown)
VH: B1 VH with D34N, Y51L
VL: B1 VL
notes: IgG1 kappa
- Kd (human IL-18BP): 2.56 nM
- Kd (cynomolgus IL-18BP [2]): 1.7 nM

B24: SA301a heavy chain variant N33bK, C34S (antibody, human IgG1, V domains shown)
VH: B1 VH with D34K
VL: B1 VL
notes: as for B1
- Kd [3]: 0.4 nM
- Kd (cynomolgus IL-18BP [1]): 0.9 nM

B25: SA301a heavy chain variant N33bE, C34S (antibody, human IgG1, V domains shown)
VH: B1 VH with D34E
VL: B1 VL
notes: as for B1
- Kd [3]: 0.1 nM
- Kd (cynomolgus IL-18BP [1]): 0.2 nM

B26: SA301a heavy chain variant N33bQ, C34S (antibody, human IgG1, V domains shown)
VH: B1 VH with D34Q
VL: B1 VL
notes: as for B1
- Kd [3]: 1.9 nM
- Kd (cynomolgus IL-18BP [1]): 1.1 nM

B27: SA301a HC-Y50G (antibody, name in Kabat numbering, V domains shown)
VH: B1 VH with D34N, Y51G
VL: B1 VL
notes: IgG1 kappa
- Kd (human IL-18BP): 1.03 nM
- Kd (cynomolgus IL-18BP [2]): 2.85 nM

B28: SA301a HC-Y50Q (antibody, name in Kabat numbering, V domains shown)
VH: B1 VH with D34N, Y51Q
VL: B1 VL
notes: IgG1 kappa
- Kd (human IL-18BP): 1.13 nM
- Kd (cynomolgus IL-18BP [2]): 1.12 nM

B29: SA301a heavy chain variant N33bG, C34S (antibody, human IgG1, V domains shown)
VH: B1 VH with D34G
VL: B1 VL
notes: as for B1
- Kd [3]: 0.2 nM
- Kd (cynomolgus IL-18BP [1]): 0.5 nM

B30: SA301a HC-Y50K (antibody, name in Kabat numbering, V domains shown)
VH: B1 VH with D34N, Y51K
VL: B1 VL
notes: IgG1 kappa
- Kd (human IL-18BP): 1.08 nM
- Kd (cynomolgus IL-18BP [2]): 2.43 nM

B31: SA301a heavy chain variant N33bP, C34S (antibody, human IgG1, V domains shown)
VH: B1 VH with D34P
VL: B1 VL
notes: as for B1
- Kd [3]: 2.5 nM
- Kd (cynomolgus IL-18BP [1]): 1.3 nM
